Assay results reported in patent US20230074657A1 (SHANGHAI HENLIUS BIOTECH, published 2023).
Numbering of substitutions follows the chain as printed. One block for each binder: values may come before it.

Legend:
[1] = target: T1, Recombinant mouse LAG3-Fc fusion protein (mouse, UniProt Q61790 24-442, limits assumed); assay: ELISA, plate coated with mouse LAG3-Fc
T1 construct: Bought; not shown: Fc part; not described
T1 sequence (looked up): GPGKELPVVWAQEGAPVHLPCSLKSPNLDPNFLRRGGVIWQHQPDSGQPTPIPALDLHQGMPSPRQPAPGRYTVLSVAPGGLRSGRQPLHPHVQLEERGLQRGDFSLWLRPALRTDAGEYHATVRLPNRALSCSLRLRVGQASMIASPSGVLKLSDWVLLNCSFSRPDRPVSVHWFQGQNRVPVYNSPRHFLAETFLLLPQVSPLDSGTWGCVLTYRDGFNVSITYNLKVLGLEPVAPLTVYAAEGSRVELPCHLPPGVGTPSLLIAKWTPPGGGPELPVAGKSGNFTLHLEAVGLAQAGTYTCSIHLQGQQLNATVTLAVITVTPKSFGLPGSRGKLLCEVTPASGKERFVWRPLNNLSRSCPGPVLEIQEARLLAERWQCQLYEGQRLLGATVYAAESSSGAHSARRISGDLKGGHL
Method: The plate is washed 3 times with PBS containing 0.05% Tween 20 (PBST). The plate is blocked with PBS containing 5% skimmed milk for 1 hour at room temperature. […] The plate is washed 3 times with PBST, and 30 μl of 1:2000 diluted horseradish peroxidase-labeled goat anti-human IgG kappa light chain secondary antibody (millipore) is added thereto, and the plate is allowed to stand at room temperature for 1 hour. The plate is washed 6 times with PBST, and TMB is added thereto for color development. The reaction is stopped with 2M H₂SO₄. The plate is read at 450 nm with a microplate reader.

[2] = target: T2, LAG3-Fc recombinant protein (UniProt P18627 23-450); assay: ELISA on coated LAG3-Fc, anti-human kappa-HRP
T2 construct: also called LAG3-Fc (Acro); LAG3-Fc protein; not shown: Fc part
T2 sequence (looked up): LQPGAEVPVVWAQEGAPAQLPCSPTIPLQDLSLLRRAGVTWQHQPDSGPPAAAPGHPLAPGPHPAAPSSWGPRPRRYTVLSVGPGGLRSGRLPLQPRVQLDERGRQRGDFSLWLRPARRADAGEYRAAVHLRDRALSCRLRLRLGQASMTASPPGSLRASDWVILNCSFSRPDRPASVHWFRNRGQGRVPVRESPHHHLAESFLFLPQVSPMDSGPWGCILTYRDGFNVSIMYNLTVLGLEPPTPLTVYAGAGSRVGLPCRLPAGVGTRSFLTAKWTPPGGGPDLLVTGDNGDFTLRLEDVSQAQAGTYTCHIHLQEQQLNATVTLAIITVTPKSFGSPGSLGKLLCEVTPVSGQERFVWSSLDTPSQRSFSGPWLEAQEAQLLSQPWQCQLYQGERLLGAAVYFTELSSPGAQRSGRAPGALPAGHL
Method: The affinity of the humanized antibody for LAG3 is detected by an ELISA technique. […] The plate is washed 3 times with PBS containing 0.05% Tween 20 (PBST). The plate is blocked with PBS containing 5% skimmed milk for 1 hour at room temperature. […] The plate is washed 3 times with PBST, and 30 μl of 1:4000 diluted horseradish peroxidase-labeled goat anti-human IgG kappa light chain secondary antibody (Millipore) is added thereto, and the plate is allowed to stand at room temperature for 1 hour. The plate is washed 6 times with PBST, and TMB is added thereto for color development. The reaction is stopped with 2M H₂SO₄. The plate is read at 450 nm with a microplate reader.

[3] = target: T3, full-length human LAG3 on the cell surface (transfected CHO-S or Jurkat cells) (human, UniProt P18627 23-525); assay: flow cytometry on CHO-S cells expressing full-length human LAG3 [panel 6A]
T3 construct: whole, on cells; also called LAG3 on the cell membrane
T3 sequence (looked up): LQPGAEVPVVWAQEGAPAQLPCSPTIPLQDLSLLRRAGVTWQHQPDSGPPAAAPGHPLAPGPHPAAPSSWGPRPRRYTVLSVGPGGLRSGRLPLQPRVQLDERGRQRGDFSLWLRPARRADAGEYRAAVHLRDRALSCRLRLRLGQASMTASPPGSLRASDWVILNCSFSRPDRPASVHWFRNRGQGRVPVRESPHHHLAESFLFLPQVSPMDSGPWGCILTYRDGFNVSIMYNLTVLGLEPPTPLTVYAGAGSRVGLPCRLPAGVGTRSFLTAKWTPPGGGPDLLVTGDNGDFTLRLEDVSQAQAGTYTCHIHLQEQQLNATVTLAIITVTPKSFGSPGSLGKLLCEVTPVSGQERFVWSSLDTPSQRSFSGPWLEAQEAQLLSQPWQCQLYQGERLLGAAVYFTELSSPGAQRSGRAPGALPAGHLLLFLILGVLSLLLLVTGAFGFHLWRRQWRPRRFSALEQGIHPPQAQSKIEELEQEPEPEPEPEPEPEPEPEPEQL
Method: (§1) The binding of the humanized antibodies to LAG3 on the cell surface is determined by a flow cytometry method. The transfected CHO-S or Jurkat cells expressing the full-length human LAG3 gene are taken and washed twice with PBS (2% FBS), and the cell concentration is adjusted to 5×10⁵/100 μl. 1:3 gradient-diluted anti-LAG3 humanized antibody is added, and incubated at 4° C. for 30 min. […] The cells are centrifuged at 500×g for 5 min. The cells are washed twice with PBS (2% FBS). 1:300 diluted goat anti-human IgG Fab-FITC (Thermo Fisher) is added, and incubated at 4° C. for 30 min. The cells are washed twice with PBS (2% FBS). The cells are suspended in 200 μl PBS and analyzed by flow cytometry.

Tag1-LAG3 protein = target: T4, Tag1-LAG3 protein (UniProt P18627 23-450); assay: HTRF blocking assay (Cisbio kit): Tag1-LAG3 with Tag2-FGL1 and antibody
T4 construct: also called LAG3 (Cisbio kit)
Method: The mixture is reacted at room temperature for 15 minutes, and then 10 μL of pre-mixed anti-Tag1-Tb3+ and anti-Tag2-XL665 are added thereto.

[4] = target: T2, LAG3-Fc recombinant protein; assay: flow cytometry blocking assay: antibody premixed with LAG3-Fc (2 µg/ml), binding to MHC II on Raji cells
Method: Raji cells are washed twice with PBS (2% FBS), and the cell concentration is adjusted to 2×10⁵/100 μl. […] The mixture is then mixed with the Raji cells and incubated at 4° C. for 60 min. The cells are centrifuged at 500×g for 5 min. The cells are washed twice with PBS (2% FBS). 1:500 diluted goat anti-human IgG-Fc-Alexa Fluor 488 (Jackson) is added, and incubated at 4° C. for 60 min. The cells are washed twice with PBS (2% FBS). The cells are suspended in 200 μl PBS and analyzed by flow cytometry.

[5] = target: T2, LAG3-Fc recombinant protein; assay: ELISA blocking assay: antibody mixed with LSECtin, added to coated LAG3-Fc, bound LSECtin detected with anti-His-HRP
Method: The plate is washed 3 times with PBS containing 0.05% Tween 20 (PBST). […] The plate is washed 6 times with PBST, and TMB is added thereto for color development. The reaction is stopped with 2M H₂SO₄. The plate is read at 450 nm with a microplate reader.

[6] = target: T2, LAG3-Fc recombinant protein; assay: SPR, LAG3-Fc immobilized on the chip, antibody in flow, 1:1 Langmuir fit
Method: (§2) Surface plasmon resonance (SPR) is used to measure the binding affinity and kinetic constants of the anti-LAG3 humanized antibody for the LAG3 protein. […] The data obtained from the experiments are analyzed using an evaluation software, and the curve is fitted with a 1:1 Langmuir binding model.

[7] = target: T3, full-length human LAG3 on the cell …; assay: flow cytometry on Jurkat cells expressing full-length human LAG3 [panel 6B]
Method: as §1

[8] = target: T5, Recombinant cynomolgus monkey LAG3-Fc fusion protein (cynomolgus monkey); assay: SPR, cynomolgus monkey LAG3-Fc immobilized on the chip, antibody in flow, 1:1 Langmuir fit
T5 construct: Bought; also called cynomolgus monkey LAG3-Fc protein
Method: as §2, with “for the cynomolgus monkey LAG3 protein.” for “for the LAG3 protein.”

[9] = target: T3, full-length human LAG3 on the cell …; assay: flow cytometry on Jurkat cells expressing full-length human LAG3, anti-mouse IgG-FITC
Method: (§3) The transfected Jurkat cells expressing the full-length human LAG3 gene are taken and washed twice with PBS (2% FBS), and the cell concentration is adjusted to 2×10⁵/100 μl. […] The cells are centrifuged at 500×g for 5 min. […] The cells are washed twice with PBS (2% FBS). […] The cells are washed twice with PBS (2% FBS). The cells are suspended in 200 μl PBS and analyzed by flow cytometry.

[10] = target: T3, full-length human LAG3 on the cell …; assay: flow cytometry on Jurkat cells expressing full-length human LAG3, anti-human IgG Fab-FITC
Method: as §3

B1: anti-LAG3 humanized antibody h6H11B10 (antibody, human IgG4 S228P)
heavy: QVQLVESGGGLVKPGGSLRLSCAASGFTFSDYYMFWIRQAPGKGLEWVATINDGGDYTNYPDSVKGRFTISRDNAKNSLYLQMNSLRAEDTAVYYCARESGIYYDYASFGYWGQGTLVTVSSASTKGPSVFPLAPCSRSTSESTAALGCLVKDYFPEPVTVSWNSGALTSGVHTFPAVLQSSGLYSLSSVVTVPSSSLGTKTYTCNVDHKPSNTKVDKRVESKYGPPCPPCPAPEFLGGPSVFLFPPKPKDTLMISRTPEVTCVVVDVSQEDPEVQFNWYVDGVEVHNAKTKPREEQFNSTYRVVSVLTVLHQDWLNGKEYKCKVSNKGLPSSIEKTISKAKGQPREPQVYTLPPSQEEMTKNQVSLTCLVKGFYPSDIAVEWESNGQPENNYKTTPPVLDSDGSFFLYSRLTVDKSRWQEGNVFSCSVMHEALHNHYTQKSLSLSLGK
light: DIVMTQSPLSLSVTPGEPASISCRSSKSLLYSNGITYLYWYLQKPGQSPQLLIYQMSNLASGVPDRFSGSGSGTDFTLKISRVEAEDVGVYYCAQNLELPWTFGGGTKLEIKRNLAAPSVFIFPPSDEQLKSGTASVVCLLNNFYPREAKVQWKVDNALQSGNSQESVTEQDSKDSTYSLSSTLTLSKADYEKHKVYACEVTHQGLSSPVTKSFNRGEC
notes: Expressed in CHO-S cells
binding result [1]: binds
EC50 (read off the curve) [2]: ~0.3 µg/mL
EC50 (read off the curve) [3]: ~0.3 µg/mL

B2: anti-LAG3 humanized antibody h6H11B10#40 (antibody, human IgG4 S228P)
heavy: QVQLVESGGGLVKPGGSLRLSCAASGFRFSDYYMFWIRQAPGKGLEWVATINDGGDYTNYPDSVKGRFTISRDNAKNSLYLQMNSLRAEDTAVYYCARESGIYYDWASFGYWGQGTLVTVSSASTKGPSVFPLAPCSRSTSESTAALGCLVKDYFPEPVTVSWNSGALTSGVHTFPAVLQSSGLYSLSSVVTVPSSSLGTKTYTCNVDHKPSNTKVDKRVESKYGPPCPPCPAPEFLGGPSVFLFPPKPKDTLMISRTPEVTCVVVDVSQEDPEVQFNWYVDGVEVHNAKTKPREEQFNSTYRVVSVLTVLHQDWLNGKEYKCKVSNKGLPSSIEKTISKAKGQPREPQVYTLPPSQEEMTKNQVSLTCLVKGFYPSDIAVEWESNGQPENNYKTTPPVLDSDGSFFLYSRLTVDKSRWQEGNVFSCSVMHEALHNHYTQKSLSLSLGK
light: B1 light with L30K
notes: Expressed in CHO-S cells
IC50 (read off the curve) (Tag1-LAG3 protein): ~2 µg/mL
EC50 (read off the curve) [2]: ~0.2 µg/mL
IC50 (read off the curve) [4]: ~0.5 µg/mL
IC50 (read off the curve) [5]: ~1 µg/mL
Kd [6]: 0.313 nM
koff [6]: 1.37e-05 s⁻¹
kon [6]: 43500 M⁻¹ s⁻¹
EC50 (read off the curve) [7]: ~0.01 µg/mL
EC50 (read off the curve) [3]: ~0.4 µg/mL
Kd [8]: 1.42 nM
koff [8]: 3.09e-05 s⁻¹
kon [8]: 21700 M⁻¹ s⁻¹

Results, then the binder that gave them:

binding result [9]: binds
B3: anti-LAG3 murine antibody 6H11B10 (antibody, V domains shown)
VH: EVQVVESGGGLVKPGGSLKLSCAASGFTFSDYYMFWVRQTPEERLEWVATINDGGDYTNYPDSVKGRFTISRDNDKNKLYLQMNSLKSEDTAMYYCARESGIYYDYASFGYWGQGTLVTVSS
VL: DIVMTQAAFSNPVTLGTSASISCRSSKSLLYSNGITYLYWYLQKPGQSPQLLIYQMSNLASGVPDRFSSSGSGTDFTLRISRVEAEDVGVYYCAQNLELPWTFGGGTKLEIKRNL
notes: also called m6H11B10; monoclonal hybridoma cell line 6H11B10

binding result [10]: binds
B4: anti-LAG3 chimeric antibody c6H11B10 (antibody, human IgG4 S228P, V domains shown)
VH: B3 VH
VL: DIVMTQAAFSNPVTLGTSASISCRSSKSLLYSNGITYLYWYLQKPGQSPQLLIYQMSNLASGVPDRFSSSGSGTDFTLRISRVEAEDVGVYYCAQNLELPWTFGGGTKLEIKR
notes: Expressed in CHO-S cells; also called chimeric antibody protein c6H11B10
